The results in this text go back to US20200002439A1 (GENSUN BIOPHARMA, published 2020).

Experiment [1] has as its target T1, human PD-1 on transfected CHO-K1 cells (human, UniProt Q15116 25-288).
T1 construct: also called Human PD-1 transfected CHO-K1 cells
Briefly: cell-based blocking assay, flow cytometry: binding of FITC labeled human PD-L1-Fc to human PD-1 transfected CHO-K1 cells is blocked. (Flow cytometry measures light scatter and fluorescence of single cells or particles in a stream.)

Experiment [2] has as its target T2, recombinant human VEGF 165 (human, UniProt P15692-4 27-191). Briefly: cell-based or functional assay.
Experiment [3] deals with T2, recombinant human VEGF 165. The experiment is described as follows: cell-based or functional assay. This is another data set of the same source.
The target in experiment [4] is T3, His tagged human PD-1 (human, UniProt Q15116 25-170).
T3 construct: also called His tagged human PD-I; PD-1 protein
The experiment is described as follows: bio-layer interferometry, PD-1-His (R&D); column head prints KD (nM) but the cell carries E-09, and Kd/Ka of the same row gives this number in M. In general terms: Biolayer interferometry detects binding as a change in optical thickness at a sensor tip.

Experiment [5] deals with T2, recombinant human VEGF 165. The experiment is described as follows: bio-layer interferometry, rhVEGF165.
The target in experiment [6] is T3, His tagged human PD-1. The experiment is described as follows: bio-layer interferometry, PD-1-His (R&D).
The target of experiment [7] is T4, His tagged human Angiopoietin-2 (human, UniProt O15123 19-496, limits assumed).
T4 construct: Antigen of the bio-layer interferometry experiments; also called Ang-2; Ang2
T4 sequence (looked up): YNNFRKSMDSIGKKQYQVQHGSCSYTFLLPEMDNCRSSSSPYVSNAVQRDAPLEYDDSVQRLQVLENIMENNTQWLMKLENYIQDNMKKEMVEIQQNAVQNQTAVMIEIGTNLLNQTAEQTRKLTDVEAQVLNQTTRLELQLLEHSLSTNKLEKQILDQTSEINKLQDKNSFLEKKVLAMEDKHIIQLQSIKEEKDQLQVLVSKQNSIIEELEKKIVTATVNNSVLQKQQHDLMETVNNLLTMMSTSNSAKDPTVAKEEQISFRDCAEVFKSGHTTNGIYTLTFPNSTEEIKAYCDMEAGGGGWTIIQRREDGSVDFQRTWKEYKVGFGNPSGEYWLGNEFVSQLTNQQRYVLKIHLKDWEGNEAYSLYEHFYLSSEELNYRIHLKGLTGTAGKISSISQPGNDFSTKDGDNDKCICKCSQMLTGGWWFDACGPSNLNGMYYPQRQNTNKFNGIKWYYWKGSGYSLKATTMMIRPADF
Briefly: bio-layer interferometry, rhAng2-His.

For experiment [8], the target named is T5, recombinant human Ang2 (human, UniProt O15123 19-496).
T5 construct: also called Ang2 (R&D)
T5 sequence (looked up): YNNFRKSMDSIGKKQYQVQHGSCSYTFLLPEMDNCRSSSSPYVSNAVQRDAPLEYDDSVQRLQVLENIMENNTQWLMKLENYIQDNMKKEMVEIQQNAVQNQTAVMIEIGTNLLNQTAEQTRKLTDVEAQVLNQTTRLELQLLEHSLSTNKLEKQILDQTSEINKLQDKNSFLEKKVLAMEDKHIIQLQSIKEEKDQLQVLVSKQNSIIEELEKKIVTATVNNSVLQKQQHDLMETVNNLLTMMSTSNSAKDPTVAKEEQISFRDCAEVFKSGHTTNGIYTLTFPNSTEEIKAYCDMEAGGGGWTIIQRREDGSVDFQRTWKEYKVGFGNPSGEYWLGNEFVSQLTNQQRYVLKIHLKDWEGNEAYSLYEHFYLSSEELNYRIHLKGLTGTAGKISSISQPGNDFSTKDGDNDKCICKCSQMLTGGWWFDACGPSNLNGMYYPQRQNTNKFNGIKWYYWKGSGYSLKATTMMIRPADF
Briefly: blocking ELISA: Ang2 coated on the plate, binding of recombinant human Tie2 is blocked. For orientation: ELISA stands for enzyme-linked immunosorbent assay.

T1 sequence (Q15116 25-288 limits assumed): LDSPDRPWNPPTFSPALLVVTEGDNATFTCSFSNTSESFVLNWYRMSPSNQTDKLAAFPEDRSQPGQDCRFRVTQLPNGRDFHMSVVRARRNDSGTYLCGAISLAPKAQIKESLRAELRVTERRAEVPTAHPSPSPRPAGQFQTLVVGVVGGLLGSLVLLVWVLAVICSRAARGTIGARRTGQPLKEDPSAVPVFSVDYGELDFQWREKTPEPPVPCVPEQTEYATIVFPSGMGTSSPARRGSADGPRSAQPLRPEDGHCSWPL
T2 sequence (P15692 other isoform, or with tags, fused parts or gaps limits assumed): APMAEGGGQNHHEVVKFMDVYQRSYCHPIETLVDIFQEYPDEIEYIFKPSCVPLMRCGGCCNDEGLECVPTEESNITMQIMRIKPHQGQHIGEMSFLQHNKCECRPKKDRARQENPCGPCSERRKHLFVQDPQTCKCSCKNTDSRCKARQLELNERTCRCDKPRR
T3 sequence (Q15116 25-170 limits assumed): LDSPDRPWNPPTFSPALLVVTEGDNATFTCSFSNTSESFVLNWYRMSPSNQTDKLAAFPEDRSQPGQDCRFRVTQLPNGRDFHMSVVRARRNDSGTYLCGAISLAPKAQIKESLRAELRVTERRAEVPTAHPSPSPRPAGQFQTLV

B1: 2P17 (antibody, V domains shown)
VH: QVQLVQSGAEVKKPGASVKVSCKASGYTFTSYYIHWVRQAPGQGLEWMGWIFPGSGNSKYNENFKGRVTLTADTSTSTVYMELSSLRSEDTAVYYCASETYDYGDYWGQGTLVTVSS
VL: DIQMTQSPSFLSASVGDRVTITCKASQNVGTNVAWYQQKPGKAPKALIYSASYRYSGVPSRFSGSGSGTEFTLTISSLQPEDFATYYCQQYYSYPYTFGQGTKLEIK
notes: also called PD-06; parental antibody 2P17
The IC50 is the midpoint of a concentration-inhibition curve. Molecule B1 returned an IC50 in experiment [1] of 370 pM.

B2: Bi-ZP-2 (bispecific antibody, human IgG1, kappa, N297A)
heavy: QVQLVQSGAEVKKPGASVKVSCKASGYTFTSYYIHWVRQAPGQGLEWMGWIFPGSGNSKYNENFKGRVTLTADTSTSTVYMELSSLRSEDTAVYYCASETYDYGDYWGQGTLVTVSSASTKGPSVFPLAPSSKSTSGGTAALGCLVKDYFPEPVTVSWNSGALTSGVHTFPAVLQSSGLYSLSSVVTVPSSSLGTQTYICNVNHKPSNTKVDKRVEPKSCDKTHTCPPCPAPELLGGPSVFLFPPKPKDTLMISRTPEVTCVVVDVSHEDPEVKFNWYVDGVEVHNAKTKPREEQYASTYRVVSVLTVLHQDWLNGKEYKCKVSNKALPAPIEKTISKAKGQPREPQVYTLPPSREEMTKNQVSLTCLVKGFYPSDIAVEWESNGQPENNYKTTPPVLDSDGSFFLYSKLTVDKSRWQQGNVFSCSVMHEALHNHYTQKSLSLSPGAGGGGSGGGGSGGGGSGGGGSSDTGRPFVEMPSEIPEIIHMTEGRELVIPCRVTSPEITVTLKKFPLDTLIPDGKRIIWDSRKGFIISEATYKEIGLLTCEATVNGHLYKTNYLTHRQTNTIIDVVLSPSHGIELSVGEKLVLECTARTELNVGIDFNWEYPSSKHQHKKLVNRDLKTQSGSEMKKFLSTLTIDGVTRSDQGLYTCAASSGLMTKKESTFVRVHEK
light: DIQMTQSPSFLSASVGDRVTITCKASQNVGTNVAWYQQKPGKAPKALIYSASYRYSGVPSRFSGSGSGTEFTLTISSLQPEDFATYYCQQYYSYPYTFGQGTKLEIKRTVAAPSVFIFPPSDEQLKSGTASVVCLLNNFYPREAKVQWKVDNALQSGNSQESVTEQDSKDSTYSLSSTLTLSKADYEKHKVYACEVTHQGLSSPVTKSFNRGEC
For B2, the “IC50 (read off the curve)” value in experiment [2] is approximately 100 pM. Further, in experiment [3], the “IC50 (VEGF-induced luciferase signal, cell based VEGF neutralization assay on VEGFR-2 reporter cells)” value was determined as 140 pM.

B3: TS-ZPT-3S(2P17) (other)
heavy: QVQLVQSGAEVKKPGASVKVSCKASGYTFTSYYIHWVRQAPGQGLEWMGWIFPGSGNSKYNENFKGRVTLTADTSTSTVYMELSSLRSEDTAVYYCASETYDYGDYWGQGTLVTVSSASTKGPSVFPLAPCSRSTSESTAALGCLVKDYFPEPVTVSWNSGALTSGVHTFPAVLQSSGLYSLSSVVTVPSSSLGTKTYTCNVDHKPSNTKVDKRVESKYGPPCPPCPAPEFLGGPSVFLFPPKPKDTLMISRTPEVTCVVVDVSQEDPEVQFNWYVDGVEVHNAKTKPREEQFNSTYRVVSVLTVLHQDWLNGKEYKCKVSNKGLPSSIEKTISKAKGQPREPQVYTLPPSQEEMGGQEECEWDPWTCEHMGGTKNQVSLTCLVKGFYPSDIAVEWESNGQPENNYKTTPPVLDSDGSFFLYSRLTVDKSRWQEGNVFSCSVMHEALHNHYTQKSLSLSLGKGGGGSGGGGSGGGGSSDTGRPFVEMYSEIPEIIHMTEGRELVIPCRVTSPNITVTLKKFPLDTLIPDGKRIIWDSRKGFIISNATYKEIGLLTCEATVNGHLYKTNYLTHRQTNTIIDVVLSPSHGIELSVGEKLVLNCTARTELNVGIDFNWEYPSSKHQHKKLVNRDLKTQSGSEMKKFLSTLTIDGVTRSDQGLYTCAASSGLMTKKNSTFVRVHEK
light: DIQMTQSPSFLSASVGDRVTITCKASQNVGTNVAWYQQKPGKAPKALIYSASYRYSGVPSRFSGSGSGTEFTLTISSLQPEDFATYYCQQYYSYPYTFGQGTKLEIKRTVAAPSVFIFPPSDEQLKSGTASVVCLLNNFYPREAKVQWKVDNALQSGNSQESVTEQDSKDSTYSLSSTLTLSKADYEKHKVYACEVTHQGLSSPVTKSFNRGEC
notes: Trispecific antagonist: 2P17 variable domains, single copy of the trebananib peptide within CH3, aflibercept domain at the carboxy terminus by a 3xG4S linker
Usually Kd stands for the constant that tells how readily two partners part at equilibrium. As usually defined, the koff is the rate constant with which the complex falls apart. One may read the kon as the second-order rate constant of association. As to B3, the dissociation constant Kd was determined as 3710 pM in experiment [4], 5.2 pM in experiment [5] and 650 pM in experiment [7]. Moreover, the koff in experiment [5] was 5.03e-06 s⁻¹; in experiment [6] it was 0.00146 s⁻¹; in experiment [7], 8.66e-05 s⁻¹. Further, the kon is 974000 M⁻¹ s⁻¹ in experiment [5], 394000 M⁻¹ s⁻¹ in experiment [6] and 134000 M⁻¹ s⁻¹ in experiment [7]. Further, the IC50 in experiment [8] is 9340 pM; in experiment [1] it was 370 pM.

B4: TS-ZPT-3L(2P17) (other)
heavy: QVQLVQSGAEVKKPGASVKVSCKASGYTFTSYYIHWVRQAPGQGLEWMGWIFPGSGNSKYNENFKGRVTLTADTSTSTVYMELSSLRSEDTAVYYCASETYDYGDYWGQGTLVTVSSASTKGPSVFPLAPCSRSTSESTAALGCLVKDYFPEPVTVSWNSGALTSGVHTFPAVLQSSGLYSLSSVVTVPSSSLGTKTYTCNVDHKPSNTKVDKRVESKYGPPCPPCPAPEFLGGPSVFLFPPKPKDTLMISRTPEVTCVVVDVSQEDPEVQFNWYVDGVEVHNAKTKPREEQFNSTYRVVSVLTVLHQDWLNGKEYKCKVSNKGLPSSIEKTISKAKGQPREPQVYTLPPSQEEMGGAQQEECEWDPWTCEHMGSGSATGGSGSTASSGSGSATHQEECEWDPWTCEHMGGTKNQVSLTCLVKGFYPSDIAVEWESNGQPENNYKTTPPVLDSDGSFFLYSRLTVDKSRWQEGNVFSCSVMHEALHNHYTQKSLSLSLGKGGGGSGGGGSGGGGSSDTGRPFVEMYSEIPEIIHMTEGRELVIPCRVTSPNITVTLKKFPLDTLIPDGKRIIWDSRKGFIISNATYKEIGLLTCEATVNGHLYKTNYLTHRQTNTIIDVVLSPSHGIELSVGEKLVLNCTARTELNVGIDFNWEYPSSKHQHKKLVNRDLKTQSGSEMKKFLSTLTIDGVTRSDQGLYTCAASSGLMTKKNSTFVRVHEK
light: DIQMTQSPSFLSASVGDRVTITCKASQNVGTNVAWYQQKPGKAPKALIYSASYRYSGVPSRFSGSGSGTEFTLTISSLQPEDFATYYCQQYYSYPYTFGQGTKLEIKRTVAAPSVFIFPPSDEQLKSGTASVVCLLNNFYPREAKVQWKVDNALQSGNSQESVTEQDSKDSTYSLSSTLTLSKADYEKHKVYACEVTHQGLSSPVTKSFNRGEC
Turning to B4, the Kd was found to be 3840 pM in experiment [4], 4.9 pM in experiment [5] and 700 pM in experiment [7]. Moreover, the koff in experiment [5] was found to be 5e-06 s⁻¹; in experiment [6] it was 0.00147 s⁻¹; in experiment [7], 9.05e-05 s⁻¹. Further, the kon amounted to 1.02e+06 M⁻¹ s⁻¹ in experiment [5], 382000 M⁻¹ s⁻¹ in experiment [6] and 130000 M⁻¹ s⁻¹ in experiment [7]. Moreover, the 50% inhibitory concentration (IC50) in experiment [8] turned out to be 600 pM; in experiment [1] it was 650 pM.

B5: TS-ZPT-3S(2P16) (other)
chain 1: QVQLVQSGAEVKKPGASVKVSCKASGYTFTTYYIYWVRQAPGQGLEWMGGINPGNGGTNFNEKFKIRVTMTRDTSISTAYMELSSLRSEDTAVYYCARRYHGYDGGLDYWGQGTLVTVSSASTKGPSVFPLAPCSRSTSESTAALGCLVKDYFPEPVTVSWNSGALTSGVHTFPAVLQSSGLYSLSSVVTVPSSSLGTKTYTCNVDHKPSNTKVDKRVESKYGPPCPPCPAPEFLGGPSVFLFPPKPKDTLMISRTPEVTCVVVDVSQEDPEVQFNWYVDGVEVHNAKTKPREEQFNSTYRVVSVLTVLHQDWLNGKEYKCKVSNKGLPSSIEKTISKAKGQPREPQVYTLPPSQEEMGGQEECEWDPWTCEHMGGTKNQVSLTCLVKGFYPSDIAVEWESNGQPENNYKTTPPVLDSDGSFFLYSRLTVDKSRWQEGNVFSCSVMHEALHNHYTQKSLSLSLGKGGGGSGGGGSGGGGSSDTGRPFVEMYSEIPEIIHMTEGRELVIPCRVTSPNITVTLKKFPLDTLIPDGKRIIWDSRKGFIISNATYKEIGLLTCEATVNGHLYKTNYLTHRQTNTIIDVVLSPSHGIELSVGEKLVLNCTARTELNVGIDFNWEYPSSKHQHKKLVNRDLKTQSGSEMKKFLSTLTIDGVTRSDQGLYTCAASSGLMTKKNSTFVRVHEK
chain 2: DIVLTQSPASLAVSPGQRATITCRASKSVSTSGFSYIHWYQQKPGQPPKLLIYLASNLESGVPARFSGSGSGTDFTLTINPVEANDTANYYCQHTWELPNTFGGGTKVEIKRTVAAPSVFIFPPSDEQLKSGTASVVCLLNNFYPREAKVQWKVDNALQSGNSQESVTEQDSKDSTYSLSSTLTLSKADYEKHKVYACEVTHQGLSSPVTKSFNRGEC
The molecule B5 yielded a Kd in experiment [4] of 4760 pM. Besides, in experiment [5], the Kd stood at 6.3 pM, the koff was found to be 4.31e-06 s⁻¹ and the kon stood at 683000 M⁻¹ s⁻¹. In experiment [6], this molecule gave a koff of 0.00159 s⁻¹ and a kon of 335000 M⁻¹ s⁻¹. Also, the IC50 in experiment [1] came out at 430 pM.
